Experiment: soluble on expression in E. coli; label from the status in PepcDB or PDB records

| Sequence | soluble on expression in E. coli |
| --- | --- |
| MPTSSTPPIVYETDLEPIYYQDCYCHKELVFCKNWKFGGEIFKYNSSGTNSSIRRVQFDCCVYKDQEIDEEMSEKVKTFKGTLDPRQVVQNNCFQHLSPLYSKFCEHYGHMIGFFWNSLKDTVMAYDIADGLFQETKDCGCCLFHKDVYLTNHIFFEKSHRDEYGQTIICMDINWHTKEHGKMSIFFNSQGFFGEYRWNRVAQCFKLMKQLDVKTTEYEVADRTDDEKNWSSFSYDAIHFLEQEYRKTKYISSTDCQKISEKIHLDEELIEKWFRARRATSKREANSNEDIFTSQYQQTKLTMKDGTEGYFLRKNHEYFKKIVVTVGFSDGSVKPCVWIEKISEYQIIDQETWRLKFENSRVMAIDAEAREQVHRQRKLNSNEKRKEEEAENEQEKLFKEMAELEIQNYRILPNSSDKRLEEHELKTQSSTLPKPCAHAQAQAHAQAQAHAQAHETNDNWPKLMTELFRALLQGQSLTQQHMQRLVHLRTQPDFNRRSYAGHELTAMEMEALKQLLNLLNGKEMPTGKKEEVEGSGLTISEAHGTVGSPMLIEKKEELEGSLEHQPTMANEEIDQNLKEETTTKPEYRKKLRMSKRKQNELLQKLWLKEKNTENTHAEKTNQEKKLTENAVQEQLEQMMKMIQEERRAADSKNLKLEQMVLEMKDKLDAQETRIKELEEVIKSDKNAKKGEQLTDPTEPQYTEAPNAEVGHKSNISSSIGNDVDLLEDDSGED | not soluble |
| MSMSDIGGKDRLNDEKRVTVRLSRSMVEEMEDLVNRDEYESVSDLVRKAVSALLESRGVNSDFLPVQIMVPKNLIEKLGKDSTKPVNLSLDEFSSLILDRINGLTVRETIKKIVHEENIK | not soluble |
| MAQEFVNCKIQPGKVVVFIKPTCPYCRRAQEILSQLPIKQGLLEFVDITATNHTNEIQDYLQQLTGARTVPRVFIGKDCIGGCSDLVSLQQSGELLTRLKQIGALQ | soluble |
| MAEFASAEFDRMLAEARSMLDAMRSGRSAPSDEEEVKGVGEAADGRVTVTVNSSGLLESVELNPRLLRLPAEEIGEHIVTAVNAALQDFRTKANQAVGAASVDLNALAASMQELQDQSVRQMAQIGQAFNELLTKLDGMR | not soluble |
| MSLYKIGELSKIVNLSIETIRYYEKIRLIPKPERFNNRYKKYSEMYIYRLKIIIKAKNYGFTLHEISNFLSEVSTSSIEDIDLSSTIMNKVQQIEKECERLNYKKNQLLKFEEEINDLQCPVLNRIINEKNEGHHHHHH | soluble |
| MLTKQPIAKKLNVSADVVWKVVRNIGRLDVWFPIIETCRVEGEGAGALRYMTVAGGGEIRDTIEEIDDVTMRLTYLRPLSPFPVTYYKGTVEVFKSYDGLAIVVWTIDFESEPEDAASVAELVRSAISDGIDGMERDLRGALEHHHHHH | soluble |
| MRIALIIFPIHASHGCILQTYALYRTLRKLGHDVSIIDRQWDKLSLKNQLVYAVKSLIISIKRKCIRPLTIEGTRKIIMSELQTFVDKHLSNRKIYFRTPRYEELPHYDAFIVGSDQTWRPKYVSDILYYYLCFVPAEEKVKRIAYAPSFGTEEWEYSEQQTLQCRELVSRFDAIAVREDSGAKLCGKYLGINVEHVLDPTMLLNKEDYLSETGIMPSEQNRLSYYLLDNSKSKMQIVEEICKELHLTVQRINTETENHKAGIKERVAPSIEKWIEGFVNSKFIVADSFHATVFAIIFNKHFITIANKDRGIARFESLLKMFGLENRLITDIRQVTPELVHESIDWGKVNQTMWAKQSSSLDYLKFNLGNI | not soluble |
| MAHHHHHHMESKVPLFLYFMVTNHPEVKQYTELLCHQVDQANRRLKDENFGDVYQEFGKDAGLAIKLGMVDCLQEPGLMAKFHIDPHMFPLIYFVRNKVFCDKMVGVVTESHVKEAVEAFIDDAKLESKSESEGASLFQKVRRQDDDDENAMTLIAAAHGKMQAGDPAKGKQLFEKALRMSMEDMEVVKKRYGVPNKKMTPELWAKLKREPCYNSAPEALCGLAMCAMASKQRDEAFRLAARVREEFPFAPQDMRGVAEAVVRIELIQVVDYDPDTDNYMRLLKFDELVSEPAQFYKHHLKRAVAFYVEGVAGQAIEECIRLIRAEPKLLSALKEGGIVPNDLRLGPTAVTPARQVIRAIFEALGPTNERVEKGRKLLQLYL | not soluble |
| MYMRAGDGRVHGIYSSTDVANLILKTTGTALMDKKKLHKLLYYMQGWTLAALGRPAFANDLQAWVDGPVSVGMRRDTHYATCFEVANRPLSNPLAPQDRDLLALMYLIAPFYAQQQTQALVDSTHAEAPWLDARGGLPPPMPIPARRSLTTHCTATFHSTPASWV | not soluble |
| MQNRQVANATKVAVAGASGYAGGEILRLLLGHPAYADGRLRIGALTAATSAGSTLGEHHPHLTPLAHRVVEPTEAAVLGGHDAVFLALPHGHSAVLAQQLSPETLIIDCGADFRLTDAAVWERFYGSSHAGSWPYGLPELPGARDQLRGTRRIAVPGCYPTAALLALFPALAADLIEPAVTVVAVSGTSGAGRAATTDLLGAEVIGSARAYNIAGVHRHTPEIAQGLRAVTDRDVSVSFTPVLIPASRGILATCTARTRSPLSQLRAAYEKAYHAEPFIYLMPEGQLPRTGAVIGSNAAHIAVAVDEDAQTFVAIAAIDNLVKGTAGAAVQSMNLALGWPETDGLSVVGVAP | soluble |
| AIAIRTKQSEAKSKGDTLRQLELAALMTHCNMLITHQQLALQAAMKLAYATKNYLYALAFAKRLLELAPNEEMERTAKKVMQFCERNPNNQNQLDYDIEQSNFAIDAGRLKPCIQPPTKSCVYCGACYDESWHSMTCVVCQVAQD | soluble |
| MSGPTDTSTQPQGFSMTRLRLIGSAVLLSLSSMAMADSASQAEQFLKLVHADKLTVPVYAQVQQMLAQRFAQAKAPESKKAVLERYQAKANAELDRAIGWDKIKPELIKLYTTNFTESELKDLNAFYQSPLGKKVLEKMPRLTAESAQLTQAKLQGAVEPVNKLMADMDKELGVAAPAQKKK | not soluble |
| MKEPLDLSKYSVRTDLAVEAHQMLQERQEEQQQGIQGVIVKEREEEGIIITKVTIDEVASESMGKKPGNYLTLEVQGIRQQDTELQQKVERIFAKEFSYFLEEVGVTKEASCLIVGLGNWNVTPDALGPIVVENVLVTRHLFQLQPESVEEGFRPVSAIRPGVMGITGIETSDVIYGIIEKTKPDFVIAIDALAARSIERVNSTIQISDTGIHPGSGVGNKRKELSKETLGIPVIAIGVPTVVDAVSITSDTIDFILKHFGREMKEGNKPSRSLLPAGFTFGEKKKLTEEDMPDEKSRNMFLGAVGTLEDEEKRKLIYEVLSPLGHNLMVTPKEVDAFIEDMANVIASGLNAALHHQIDQDNTGAYTH | not soluble |
| MSKLLVVKAHPLTKEESRSVRALETFLASYRETNPSDEIEILDVYAPETNMPEIDEELLSAWGALRAGAAFETLSENQQQKVARFNELTDQFLSADKVVIANPMWNLNVPTRLKAWVDTINVAGKTFQYTAEGPKPLTSGKKALHIQSNGGFYEGKDFASQYIKAILNFIGVDQVDGLFIEGIDHFPDRAEELLNTAMTKATEYGKTF | soluble |

— the DeepSol protein solubility set
